The values that follow come from patent US20240034774A1.

A value given as a limit tells only on which side of the number the result lay.

Assay in all cases: cell-based or functional assay
Experiment [1] addresses HIV-1 envelope glycoprotein gp120 of virus VS001 (HIV-1).
The target of experiment [2] is HIV-1 envelope glycoprotein gp120 of virus 92US727 (HIV-1).
The target of experiment [3] is HIV-1 envelope glycoprotein gp120 of virus 7141 (HIV-1).
For experiment [4], the target named is 152 patient-derived subtype B viruses obtained from pre-ART plasma.
The target of experiment [5] is HIV-1 envelope glycoprotein (gp120) of virus 8117 (HIV-1).
Experiment [6] addresses HIV-1 envelope glycoprotein (gp120) of virus 92HT593 (HIV-1).
For experiment [7], the target named is HIV-1 envelope glycoprotein (gp120) of virus VS017 (HIV-1).
Experiment [8] concerns the target HIV-1 envelope glycoprotein (gp120) of virus 8176 (HIV-1).
Experiment [9] has as its target HIV-1 envelope glycoprotein (gp120) of virus VS026 (HIV-1).
Experiment [10] has as its target HIV-1 envelope glycoprotein (gp120) of virus 7595 (HIV-1).
Experiment [11] deals with HIV-1 envelope glycoprotein (gp120) of virus 8320 (HIV-1).
For experiment [12], the target named is HIV-1 envelope glycoprotein (gp120) of virus 7576 (HIV-1).
The target of experiment [13] is HIV-1 envelope glycoprotein (gp120) of virus 7467 (HIV-1).
Experiment [14] concerns the target HIV-1 envelope glycoprotein (gp120) of virus 8110 (HIV-1).
Experiment [15] addresses HIV-1 envelope glycoprotein (gp120) of virus 8106 (HIV-1).
The target in experiment [16] is HIV-1 envelope glycoprotein (gp120) of virus 7141 (HIV-1).
Experiment [17] has as its target HIV-1 envelope glycoprotein (gp120) of virus 1012 (HIV-1).
Experiment [18] has as its target HIV-1 envelope glycoprotein (gp120) of virus REJO (HIV-1).
Experiment [19] has as its target HIV-1 envelope glycoprotein (gp120) of virus 7051 (HIV-1).
Experiment [20] has as its target HIV-1 envelope glycoprotein (gp120) of virus 7015 (HIV-1).
The target in experiment [21] is HIV-1 envelope glycoprotein (gp120) of virus 7552 (HIV-1).
Experiment [22] addresses HIV-1 envelope glycoprotein (gp120) of virus VS030 (HIV-1).
The target of experiment [23] is HIV-1 envelope glycoprotein (gp120) of virus 7103 (HIV-1).
Experiment [24] concerns the target HIV-1 envelope glycoprotein (gp120) of virus VS004 (HIV-1).
Experiment [25] has as its target HIV-1 envelope glycoprotein (gp120) of virus 1489 (HIV-1).
Experiment [26] has as its target HIV-1 envelope glycoprotein (gp120) of virus 8318 (HIV-1).
Experiment [27] concerns the target HIV-1 envelope glycoprotein (gp120) of virus CHO77 (HIV-1).
The target in experiment [28] is HIV-1 envelope glycoprotein (gp120) of virus VS039 (HIV-1).
For experiment [29], the target named is HIV-1 envelope glycoprotein (gp120) of virus 92US657 (HIV-1).
Experiment [30] has as its target HIV-1 envelope glycoprotein (gp120) of virus THRO (HIV-1).
Experiment [31] has as its target HIV-1 envelope glycoprotein (gp120) of virus VS042 (HIV-1).
Experiment [32] concerns the target HIV-1 envelope glycoprotein (gp120) of virus 302076 (HIV-1).
Experiment [33] concerns the target HIV-1 envelope glycoprotein (gp120) of virus VS043 (HIV-1).
Experiment [34] addresses HIV-1 envelope glycoprotein (gp120) of virus VS049 (HIV-1).
Experiment [35] deals with HIV-1 envelope glycoprotein (gp120) of virus 8134 (HIV-1).
The target of experiment [36] is HIV-1 envelope glycoprotein (gp120) of virus 1413 (HIV-1).
For experiment [37], the target named is HIV-1 envelope glycoprotein (gp120) of virus 92US727 (HIV-1).
For experiment [38], the target named is HIV-1 envelope glycoprotein (gp120) of virus VS001 (HIV-1).
The target of experiment [39] is HIV-1 envelope glycoprotein (gp120) of virus VS044 (HIV-1).
In experiment [40] the target is HIV-1 envelope glycoprotein (gp120) of virus VS046 (HIV-1).
The target of experiment [41] is HIV-1 envelope glycoprotein (gp120) of virus 92US712 (HIV-1).
Experiment [42] has as its target HIV-1 envelope glycoprotein (gp120) of virus 1003 (HIV-1).

B1: 2.3.17-1 (antibody, human IgG1, kappa, V domains shown)
VH: QVHLSQSGAAVTKPGASVRVSCEASGYNIRDYFIHWWRQAPGQGLQWVGWINPKTGQPNNPRQFQGRVSLTRHASWDFDTFSFYMDLKAVRSDDTAIYFCARQRSDYWDFDVWGSGTQVTVSS
VL: DIQMTQSPSSLSARVGDTATITCQANGYLNWYQQRRGKAPKLLIYDGSKLERGVPARFSGRRWGQEYHLTINNLQPEDVATYFCQVYEFFGPGTRLDLKR
B1: the neutralization IC50 is 4.54 µg/mL in experiment [1], above 50 µg/mL in experiment [2] and 31.3 µg/mL in [3].

B2: 2.2.18-1 (antibody, human IgG1, kappa, V domains shown)
VH: QVHLSQSGAAVTKPGASVRVSCEASGYKIRDHFIHWWRQAPGQGLQWVGWINPKTGQPNNPRQFQGRVSLTRHASWDFDTFSFYMDLKAVRSDDTAIYFCARQRSDYWDFDVWGSGTQVTVSS
VL: DIQMTQSPSSLSARVGDRATITCQANGYLNWYQQRRGKAPKLLIYDGSKLERGVPARFSGSRWGQEYHLTISSLQPEDVATYFCQVYEFFGPGTRLDLKR
With B2, the neutralization IC50 in [1] was 2.51 µg/mL; in [2] it was above 34 µg/mL; in experiment [3] it was 5.04 µg/mL.

B3: Antibody 1.52.90-1 (antibody, V domains shown)
VH: QVQLLQSGAAVTKPGASVRVSCEASGYNIRDYFIHWWRQAPGQGLQWVGWINPKTGQPNNPRQFQGRVSLTRHASFDFDTFSFYMDLKALRSDDTAVYFCARQRSDYWDFDVWGSGTQVTVSS
VL: DIQMTQSPSSLSASVGDRATITCQANGYLNWYQQRRGKAPKLLIYDGSKLERGVPSRFSGSRWGQEYNLTISSLQPEDIATYFCQVYEFFGPGTRLDLKR
In experiment [4], B3 showed a Breadth (% viruses neutralized with an IC95 ≤ 50 µg/mL) of 78%, a Geomean IC95 of 4.56 µg/mL and a Median IC95 of 4.42 µg/mL.

B4: 3.1.18-1 (antibody, human IgG1, kappa, V domains shown)
VH: QVQLLQSGAAVTKPGASVRVSCEASGYNIRDYFIHWWRQAPGQGLQWVGWINPKTGQPNNPRQFQGRVSLTRHASWDFDTFSFYMDLKALRSDDTAVYFCARQRSDYWDFDVWGSGTQVTVSS
VL: DIQMTQSPSSLSARVGDRATITCQANGYLNWYQQRRGKAPKLLIYDGSKLERGVPARFSGSRWGQEYHLTISSLQPEDVATYFCQVYEFFGPGTRLDLKR
Take B4: the neutralization IC50 is 3.52 µg/mL in experiment [1], above 9.8 µg/mL in [2] and above 9.8 µg/mL in [3].

B5: 1.1.102-1 (antibody, human IgG1, kappa, V domains shown)
VH: QVQLLQSGAAVTKPGASVRVSCEASGYNIRDYFIHWWRQAPGQGLQWVGWINPKTGQPNNPRQFQGRVSLTRHASWDFDTFSFYMDLKALRSDDTAVYFCARQRSDYWDFDVWGSGTQVTVSS
VL: DIQMTQSPSSLSASVGDRATITCQANGYLNWYQQRRGKAPKLLIYDGSKLERGVPSRFSGSRWGQEYHLTISSLQPEDIATYFCQVYEFFGPGTRLDLKR
Consider B5, for which the neutralization IC50 in experiment [1] was 3 µg/mL; in experiment [2], above 50 µg/mL; in [3], 22.7 µg/mL.

B6: 2.3.18-1 (antibody, human IgG1, kappa, V domains shown)
VH: QVHLSQSGAAVTKPGASVRVSCEASGYNIRDYFIHWWRQAPGQGLQWVGWINPKTGQPNNPRQFQGRVSLTRHASWDFDTFSFYMDLKAVRSDDTAIYFCARQRSDYWDFDVWGSGTQVTVSS
VL: DIQMTQSPSSLSARVGDRATITCQANGYLNWYQQRRGKAPKLLIYDGSKLERGVPARFSGSRWGQEYHLTISSLQPEDVATYFCQVYEFFGPGTRLDLKR
In the case of B6, the neutralization IC50 in experiment [1] was 2.37 µg/mL; in experiment [2] it was above 23 µg/mL; in experiment [3] it was above 23 µg/mL.

B7: Antibody 1.1.104-1 (antibody, human IgG1, kappa, V domains shown)
VH: QVQLLQSGAAVTKPGASVRVSCEASGYNIRDYFIHWWRQAPGQGLQWVGWINPKTGQPNNPRQFQGRVSLTRHASWDFDTFSFYMDLKALRSDDTAVYFCARQRSDYWDFDVWGSGTQVTVSS
VL: DIQMTQSPSSLSASVGDTATITCQANGYLNWYQQRRGKAPKLLIYDGSKLERGVPSRFSGRRWGQEYTLTINNLQPEDIATYFCQVYEFFGPGTRLDLKR
Turning to B7, the Virus Neutralization Potency in experiment [5] is 1.22 µg/mL; in experiment [6], 0.28 µg/mL; in experiment [7] it was 2.33 µg/mL; in experiment [8] it was 0.16 µg/mL; in [9] it was 0.19 µg/mL; in experiment [10], 8.47 µg/mL. The Virus Neutralization Potency in experiment [11] is 4.34 µg/mL; in experiment [12], 1.1 µg/mL; in experiment [13], 0.06 µg/mL; in [14] it was 4.19 µg/mL; in experiment [15], 2.8 µg/mL; in [16], 6.57 µg/mL. The Virus Neutralization Potency in experiment [17] is 2.87 µg/mL; in experiment [18], 0.02 µg/mL; in experiment [19], 1.32 µg/mL; in [20] it was 0.67 µg/mL; in experiment [21], above 80 µg/mL; in experiment [22], 7.9 µg/mL. Further, the Virus Neutralization Potency in experiment [23] worked out at 1.82 µg/mL; in experiment [24] it was 4.8 µg/mL; in experiment [25], 0.28 µg/mL; in [26], 0.32 µg/mL; in experiment [27] it was 0.03 µg/mL; in experiment [28], 0.1 µg/mL. Besides, the Virus Neutralization Potency in [29] is 0.36 µg/mL; in [30], 4.27 µg/mL; in experiment [31], 2.33 µg/mL; in experiment [32], 0.1 µg/mL; in [33] it was 1.49 µg/mL; in experiment [34] it was above 100 µg/mL. Further, the Virus Neutralization Potency in experiment [35] worked out at 6.07 µg/mL; in [36], 4.34 µg/mL; in experiment [37] it was 10.6 µg/mL; in [38] it was 0.34 µg/mL; in experiment [39] it was 0.28 µg/mL; in [40], 0.03 µg/mL. Moreover, the Virus Neutralization Potency in [41] is 0.04 µg/mL; in experiment [42], 1.44 µg/mL.
